IntAct's records for PubMed 22118466

B1: Vesicle-associated membrane protein 8 (Mus musculus), O70404 (parent)
chain: MEEASGSAGNDRVRNLQSEVEGVKNIMTQNVERILSRGENLDHLRNKTEDLEATSEHFKTTSQKVARKFWWKNVKMIVIICVIVLIIVILIILFATGTIPT
partner: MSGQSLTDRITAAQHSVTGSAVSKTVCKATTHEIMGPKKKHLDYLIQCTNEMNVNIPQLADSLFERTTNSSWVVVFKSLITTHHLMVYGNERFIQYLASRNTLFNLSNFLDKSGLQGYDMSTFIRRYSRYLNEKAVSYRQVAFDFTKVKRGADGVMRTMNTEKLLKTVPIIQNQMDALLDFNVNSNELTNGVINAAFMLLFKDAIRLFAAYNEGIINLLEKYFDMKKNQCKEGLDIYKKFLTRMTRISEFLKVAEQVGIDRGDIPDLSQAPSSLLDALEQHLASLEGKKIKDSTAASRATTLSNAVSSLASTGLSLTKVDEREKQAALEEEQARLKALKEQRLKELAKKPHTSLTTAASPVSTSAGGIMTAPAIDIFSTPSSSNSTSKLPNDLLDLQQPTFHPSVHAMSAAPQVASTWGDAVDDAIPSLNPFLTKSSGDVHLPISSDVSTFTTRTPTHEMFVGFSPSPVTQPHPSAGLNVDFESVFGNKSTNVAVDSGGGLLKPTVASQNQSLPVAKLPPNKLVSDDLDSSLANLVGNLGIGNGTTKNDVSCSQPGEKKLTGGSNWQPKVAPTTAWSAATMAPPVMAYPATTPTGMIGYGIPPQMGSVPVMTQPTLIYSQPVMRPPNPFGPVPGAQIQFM
B2: Phosphatidylinositol-binding clathrin assembly protein (Rattus norvegicus (Rat)), O55012 (parent)
chain: B1 partner
partner: B1 chain

Variants of: B1
Details: with pical_rat Picalm, O55012

| effect of a mutation on the interaction | Variant |
| --- | --- |
| disrupting interaction | L16P;V23P |
| disrupting interaction | K24A;M27A |

Variants of: B2
Details: with vamp8_mouse Vamp8, O70404

| effect of a mutation on the interaction | Variant |
| --- | --- |
| disrupting interaction | M244K |

Variants of: B2
Details: with vamp8_mouse Vamp8, O70404
Remark: another data set of the same source

| Variant | effect of a mutation on the interaction |
| --- | --- |
| F240A | disrupting interaction |
| D224K | disrupting interaction |
| L219S | disrupting interaction |

Further lines, results first:

| effect of a mutation on the interaction | Variant |
| --- | --- |
| disrupting interaction | L251S |
| disrupting interaction | I247D |
